Data on 30 sequences can be found in the nanobody polyreactivity screen of Harvey et al. (2022).

This series is described as follows: yeast display, Sf9 membrane polyspecificity reagent, FACS + sequencing; frameworks hold sequencing errors. A digest of the protocol: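 Galactose-induced (36–48 hours) yeast carrying a synthetic nanobody display library were exposed to 10% biotinylated, detergent-solubilized Sf9 membrane reagent at 4 °C for 1 hour. FACS followed streptavidin microbead enrichment, using low and high (top ~1%) gates for expression (anti-HA) and reagent binding (streptavidin). Colony PCR, MiSeq 2 × 250 sequencing and CDR-length filtering followed. Labels for polyreactivity reflect the gate of origin.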
Regarding “QVQLVESGGGLVQAGGSLRLSCAASGRTFDHNAMGWYRQAPGKERELVAAITSRGGSTYYADSVKGRFTISRDNAKNTVYLQMNSLKPEDTAVYYCNRYKSSSYIRGDYWGQGTQVTVSS”, the “polyreactivity (PSR sort gate)” value is reported as “high polyreactivity”.
Consider “QVQLVESGGGLVQAGGSLRLSCAASGRTFDIYAMGWYRQAHGKERELVAAISSGGSTYYADSVKGRFTISRDNAKNTVYLQMNSLKPEDTAVYYCAVRWYDQVSRRGIGYYWGQGTQVTVSS”, for which the “polyreactivity (PSR sort gate)” value is “low polyreactivity”.
With “QVQLVESGGGLVQAGGSLRLSCAASGRTFDIYAMGWYRQAPGKERELVAAISSGGSTYYADSVKGRFTISRDNAKNTVYLQMNSLKPEDTAVYYCAVRWYDQVSRRGIGYYWGQGTQVTVSS”, the “polyreactivity (PSR sort gate)” value was “low polyreactivity”.
With “QVQLVESGGGLVQAGGSLRLSCAASGRTFDLNAMGWYRQAPGKERELVAAISFSVADTYYADSVKGRFTISRDNAKNTVYLQMNSLKPEDTAVYYCAADSELGSLSGESDYWGQGTQVTVSS”, the “polyreactivity (PSR sort gate)” value is reported as “low polyreactivity”.
Take “QVQLVESGGGLVQAGGSLRLSCAASGRTFDLYAMGWYRQAPGKERELVARITNIDDSTYYADSVKGRFTISRDYAKNTVYLQMNSLKPEDTAVYYCNAASYSRGPARYDYWGQGTQVTVSS”: the “polyreactivity (PSR sort gate)” value was “high polyreactivity”.
Consider “QVQLVESGGGLVQAGGSLRLSCAASGRTFDPYAMGWYRQAPGKDRELVAAISRSGGSTYYADSVKGRFTISRDNAKNTVYLQMNSLKPEDTAVYYCAADASRYYYEYDYWGQGTQVTVSS”, for which the “polyreactivity (PSR sort gate)” value was “high polyreactivity”.
The value for “QVQLVESGGGLVQAGGSLRLSCAASGRTFDQYAMGWYTPAPGKARELVADITWSGGTTRYADSVKRRFTISRDNAKNTVYLQMNSLKPEDTAVYYCAVDVTCGYNYWGQGTQVNVSS” was “low polyreactivity”; that for “QVQLVESGGGLVQAGGSLRLSCAASGRTFDRNAMGWYRQAPGKERELVAAITSRGGRTYYADSVKGRFTISRDNAKNTVYLQMNSLKPEDTAVYYCAADLFSSRVRSNFDYWGQGTQVTVSS” was “high polyreactivity”.
For the sequence “QVQLVESGGGLVQAGGSLRLSCAASGRTFDSNTMGWYRQAPGKERELVAAITGSGGRTYYADSVKGRFTISRDNAKNSVYLQMNSLKPEDTAVYYCAARPYFYERSAGYYWGQGTQVTVSS”, the “polyreactivity (PSR sort gate)” value is reported as “high polyreactivity”.
The value for “QVQLVESGGGLVQAGGSLRLSCAASGRTFDSYVMGWYRQAPGKERELVAAISSRGGTYYADSVKGRFTISRDNAKNTVYLQMNSLKPEDTAVYYCAARIYRKYYRYDYWGQGTQVTVSS” was “high polyreactivity”; that for “QVQLVESGGGLVQAGGSLRLSCAASGRTFDTYAMGWYRQAPWKERELVAAITRRTYYADSVKGRFTISRDNAKNSVYLQMNSLKPEDTAVYYCAVRFLRKWTSSRHYGYWGQGTQVTVSS” was “high polyreactivity”; that for “QVQLVESGGGLVQAGGSLRLSCAASGRTFDVYAMGWYRPAPGKERELVATIRSDGSTTYADSVKGRFTISRDNAKNTDYLQLNSLKPEDTAVYYCAAERVGVFFRYDYWGQGTQVTVSS” was “low polyreactivity”.
The value for “QVQLVESGGGLVQAGGSLRLSCAASGRTFDVYAMGWYRQAPGKERELVAAISWSGGGTYYADSVKGRFTISRDNAKNTVYLQLTSLNPADTAVYSCAAALTFALDPNRYTYSDYYYWGQGTQVTVSS” was “low polyreactivity”; that for “QVQLVESGGGLVQAGGSLRLSCAASGRTFDYKAMGWYRQAPGKERELVAAIDVNGGDTYYADSVKGRFTISRDNAKNTVYLQMNSLKPEDTAVYYCAAERDARTDDYWGQGTQVTVSS” was “low polyreactivity”; that for “QVQLVESGGGLVQAGGSLRLSCAASGRTFDYNTMGWYRQAPGKVRELVAAISASGGSTYYADSVKGRFTISRDNAKNTVDLPMNSLKPEDTAVYYCNTYAGVEYYHWGQGTQVTVSS” was “low polyreactivity”.
The value for “QVQLVESGGGLVQAGGSLRLSCAASGRTFDYYAMGWYRQAPGKERELVAAISSSGGSTYYADSVKGRFTISRDNAKNTVYLQMNSLKPEDTEVYYCNAYAYRFNHIHHIYTTDGEYWGQGTQVTVSS” was “high polyreactivity”; that for “QVQLVESGGGLVQAGGSLRLSCAASGRTFDYYAMGWYRQAPGKERELVAAITSGGSTYYADSVKGRFTISRDNAKNTDYLQMNSLKPEDTAVYYCAKSWALTRGYGSRYYVYRYDYWGQGTQVTVSS” was “low polyreactivity”.
In the case of “QVQLVESGGGLVQAGGSLRLSCAASGRTFEGNALGWYRQAPGKERELVAAITSGGRTNYADSVKGRFTISRDNAKNTVYLQMNSLKPEDTAVYYCAVETRDRSTYFPGQAYDYWGQGTQVTVSS”, the “polyreactivity (PSR sort gate)” value is on record as “low polyreactivity”.
Take “QVQLVESGGGLVQAGGSLRLSCAASGRTFEGYAMGWYRQAPGKERELVAAISNSGGSTYYADSVKGRFTIARDNAKNTVYLQMNSLKPEDTAVYYCAALSRIPRYGYWGQGTQVTVSA”: the “polyreactivity (PSR sort gate)” value is on record as “high polyreactivity”.
As to “QVQLVESGGGLVQAGGSLRLSCAASGRTFEHYAMGWYRQAPGKERELVAAINSSDGGTYYADSVKGRFTISRDNAKNTVYLQMNSLKPEDTAVYYCAAAEFGSVPGYEMDYWGQGTQVTVSS”, the “polyreactivity (PSR sort gate)” value is recorded as “low polyreactivity”.
“QVQLVESGGGLVQAGGSLRLSCAASGRTFENYAMGWYRQAPGKERELVAAISKSGGSTYYADSVKGRFTISRDNAKNTVYLQMNSLKPEDTAVYYCNARPGQSGARFGYWGQGTQVTVSS”: the “polyreactivity (PSR sort gate)” value is listed as “high polyreactivity”.
As to “QVQLVESGGGLVQAGGSLRLSCAASGRTFENYVMGWYRQAPGKERELVPAITVSGGSTYYADSVKGRFTISRDIAKNTVYLQMNSLKPEDTAVYYCAADPNVLFSQKYYEPNDYWGQGTQVTVSS”, the “polyreactivity (PSR sort gate)” value is “low polyreactivity”.
The value for “QVQLVESGGGLVQAGGSLRLSCAASGRTFERNALGWYRQAPGKEREFVAAITEIGGSTYYADSVKGRFTISRDNAMNTVYLQMNSLKPEDTAVYYCAKDGTYSPYDYWGQGTQVTVSS” was “low polyreactivity”; that for “QVQLVESGGGLVQAGGSLRLSCAASGRTFESYGMGWYRQAPGKERELVAAITWSGGDTYYADSVKGRFTISRDNAKNTVYLQMNSLKPEDTAVYYCAKEQGLYSVSPYDYWGQGTQVTVSS” was “low polyreactivity”.
Regarding “QVQLVESGGGLVQAGGSLRLSCAASGRTFETNAMGWYRQAPGKERELVASINWSGGSTYYADSVKGRFTISRDNAKNTVYLQMNSLKPEDTAVFYCAADHSYWDWWSYYYWGQGTQVTVSS”, the “polyreactivity (PSR sort gate)” value was “low polyreactivity”.
For “QVQLVESGGGLVQAGGSLRLSCAASGRTFETNAMGWYRQAPGKERELVASINWSGGSTYYADSVKGRFTISRDNAKNTVYLQMNSLKPEDTAVYYCAAEHSYWDWWSYYYWGQGTLVTVSS”, the “polyreactivity (PSR sort gate)” value is “low polyreactivity”.
The value for “QVQLVESGGGLVQAGGSLRLSCAASGRTFEYNAMGWYRQAPGKEREFVAAITYSGGGTYYADSVKGRFTISRDNAKNTVYLQMNSLKPEDTAVYYCARERTRVHKHYYWGQGTQVTVSS” was “low polyreactivity”; that for “QVQLVESGGGLVQAGGSLRLSCAASGRTFEYYAMGWYRPAPGKERELVAAITYSGDSTYYADSVKGRFTISRDNAKNTVYLQMNSLKPEDTAVYYCAADWSSLKDDYWGQGTQVTVSS” was “low polyreactivity”.
The value for “QVQLVESGGGLVQAGGSLRLSCAASGRTFEYYAMGWYRQAPGKEREFVAAISRRGDSTYYADSVKGRFTISRDNAKNTVYLQMNSLKPEDTAVYYCAAKSYSARTKYYYWGQGTQVTVSS” was “high polyreactivity”; that for “QVQLVESGGGLVQAGGSLRLSCAASGRTFEYYAMGWYRQAPGKERELVASISFGGGSTYADSVKGRFTISRDNAKNTVYLQMNSLKPEDTAVYYCAATGGWYKHWFDYWGQGTQVTVSS” was “low polyreactivity”.
